Source: paper PMC9974061

Assays:
[1] = target: galectin-3 (gal-3), recombinant (UniProt P17931)
[2] = target: apoptosis-linked gene 2-interacting protein X (ALIX), His-tagged recombinant (UniProt Q8WUM4); test: BLI; Octet RED96; biotinylated ALIX (1 ug/ml), TSG101 (0.5 ug/ml) or gal-3 (1 ug/ml) on streptavidin biosensors; two-fold dilutions of S (280-70 uM) and P domain (144-36 uM); 20 mM HEPES, 150 mM NaCl, 0.005% Tween 20, 2 mg/ml BSA, pH 7.8; 2:1 model
[3] = target: TSG101, His-tagged recombinant (UniProt Q99816); test: as above
Sequence of TSG101, His-tagged recombinant (Q99816 whole entry): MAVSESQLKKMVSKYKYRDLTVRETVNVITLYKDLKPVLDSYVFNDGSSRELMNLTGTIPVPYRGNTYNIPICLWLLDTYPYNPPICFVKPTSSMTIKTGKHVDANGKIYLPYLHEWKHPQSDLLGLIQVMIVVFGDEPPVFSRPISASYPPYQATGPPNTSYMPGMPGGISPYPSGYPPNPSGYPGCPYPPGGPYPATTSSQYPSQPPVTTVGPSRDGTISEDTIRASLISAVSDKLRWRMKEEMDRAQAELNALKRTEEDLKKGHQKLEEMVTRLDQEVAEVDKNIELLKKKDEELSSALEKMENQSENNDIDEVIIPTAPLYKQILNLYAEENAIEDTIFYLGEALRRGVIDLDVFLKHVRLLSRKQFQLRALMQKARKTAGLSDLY

Sequence of apoptosis-linked gene 2-interacting protein X (ALIX), His-tagged recombinant (Q8WUM4 whole entry): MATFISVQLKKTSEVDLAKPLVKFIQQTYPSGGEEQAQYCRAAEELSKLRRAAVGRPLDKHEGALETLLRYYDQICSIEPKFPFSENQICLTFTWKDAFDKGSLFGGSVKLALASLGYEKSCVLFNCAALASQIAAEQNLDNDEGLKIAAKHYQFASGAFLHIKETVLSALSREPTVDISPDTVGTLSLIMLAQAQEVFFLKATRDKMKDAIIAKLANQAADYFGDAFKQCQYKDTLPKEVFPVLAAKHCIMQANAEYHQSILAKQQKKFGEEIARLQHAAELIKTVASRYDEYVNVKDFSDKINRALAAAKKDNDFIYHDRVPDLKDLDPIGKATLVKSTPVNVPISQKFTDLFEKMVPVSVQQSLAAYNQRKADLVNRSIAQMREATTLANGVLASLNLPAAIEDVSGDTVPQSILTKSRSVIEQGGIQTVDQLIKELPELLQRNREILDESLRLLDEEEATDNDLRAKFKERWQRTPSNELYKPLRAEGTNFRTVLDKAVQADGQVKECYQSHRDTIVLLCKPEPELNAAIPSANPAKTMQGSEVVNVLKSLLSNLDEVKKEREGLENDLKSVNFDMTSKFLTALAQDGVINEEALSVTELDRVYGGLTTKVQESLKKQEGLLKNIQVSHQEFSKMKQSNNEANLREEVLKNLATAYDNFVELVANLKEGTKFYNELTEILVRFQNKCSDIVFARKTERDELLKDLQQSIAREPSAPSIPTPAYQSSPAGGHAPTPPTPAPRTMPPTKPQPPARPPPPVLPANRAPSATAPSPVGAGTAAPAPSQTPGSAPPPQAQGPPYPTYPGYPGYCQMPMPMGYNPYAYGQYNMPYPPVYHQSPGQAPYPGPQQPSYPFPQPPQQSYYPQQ
Sequence of galectin-3 (gal-3), recombinant (P17931 whole entry): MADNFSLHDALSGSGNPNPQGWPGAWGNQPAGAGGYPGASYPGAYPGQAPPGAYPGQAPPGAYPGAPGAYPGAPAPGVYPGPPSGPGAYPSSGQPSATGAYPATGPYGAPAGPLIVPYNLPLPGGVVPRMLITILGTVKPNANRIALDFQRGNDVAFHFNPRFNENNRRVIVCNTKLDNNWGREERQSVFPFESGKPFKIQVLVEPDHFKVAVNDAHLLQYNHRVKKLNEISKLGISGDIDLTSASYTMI

**Q.** How did the GII.4 virus (stool isolate) replication in J2 HIEs at 24 h in the presence of anti-gal-3 antibody [1] turn out when “GII.4 Sydney/2012 virus-like particles (complex)” was run?
**A.** Its GII.4 virus (stool isolate) replication in J2 HIEs at 24 h in the presence of anti-gal-3 antibody is 98 % reduction.

**Q.** How did the Kd [2] turn out when “GII.4 capsid Shell (S) domain (domain or fragment)” was run?
**A.** Its Kd is 9.92 µM.

**Q.** And the Kd [3]?
**A.** The Kd was 21.5 µM.
